First the molecules themselves.
B1: 1-12E (designed binder)
chain: GSHMVSGKIVVIGSSTGGPRSLDMIIPNLPKNFPAPIVVVQHGDGWYGGGAVGTKSLAQRLDSTSELTVKEAEDGEEVKPGFVYIAPGDFHLGLKAQNGKVFFFLDKSGGSYTGEWTWGVRPAVDFTLDKAAEIYKEKTIAVILTGGARYGDLRGGDGTKGAFKVKFYGGTVIAEDKETSVVFGMPKSVIEEGYADYVLPAYKIPEKLIELV
notes: CheBc scaffold clone from modified pQE-80L in E. coli, purified on cobalt resin, detected with anti-FLAG
B2: 1-1B (designed binder)
chain: GSHMVSGKIVVIGSSTGGPRSLDMIIPNLPKNFPAPIVVVQHGEGWYGGGAVGTKSLAQRLDSTSELTVKEAEDGEEVKPGFVYIAPGDFHLGLKAQNGKVFFFLDKSGRGLRGGWSWGVRPAVDFTLDKAAEIYKEKTIAVILTGGAATGSSNGGDGTKGAFKVKFYGGTVIAEDKETSVVFGMPKSVIEEGYADYVLPAYKIPEKLIELV
notes: as for B1
B3: 1-12C (designed binder)
chain: GSHMVSGKIVVIGSSTGGPRSLDMIIPNLPKNFPAPIVVVQHGWALNGRYTLGTKSLAQRLDSTSELTVKEAEDGEEVKPGFVYIAPGDFHLGLKAQNGKVFFFLDKSGARDRGREWYGVRPAVDFTLDKAAEIYKEKTIAVILTGGYWEGDYAGGDGTKGAFKVKFYGGTVIAEDKETSVVFGMPKSVIEEGYADYVLPAYKIPEKLIELV
notes: as for B1
B4: 3-7E (designed binder)
chain: GSHMVSGKIVVIGSSTGGPRSLDMIIPNLPKNFPAPIVVVQHGYYWGSWGYEGTKSLAQRLDSTSELTVKEAEDGEEVKPGFVYIAPGDFHLGLKAQNGKVFFFLDKSGRVVDGWDYDGVRPAVDFTLDKAAEIYKEKTIAVILTGGWDTGSELGGDGTKGAFKVKFYGGTVIAEDKETSVVFGMPKSVIEEGYADYVLPAYKIPEKLIELV
notes: as for B1
B5: 3-8A (designed binder)
chain: GSHMVSGKIVVIGSSTGGPRSLDMIIPNLPKNFPAPIVVVQHGSWVDGSWTWGTKSLAQRLDSTSELTVKEAEDGEEVKPGFVYIAPGDFHLGLKAQNGKVFFFLDKSGWWNGGYWVTGVRPAVDFTLDKAAEIYKEKTIAVILTGGVNLGLYNGGDGTKGAFKVKFYGGTVIAEDKETSVVFGMPKSVIEEGYADYVLPAYKIPEKLIELV
notes: as for B1
B6: 4-7D (designed binder)
chain: GSHMVSGKIVVIGSSTGGPRSLDMIIPNLPKNFPAPIVVVQHGHDWSGSSGWGTKSLAQRLDSTSELTVKEAEDGEEVKPGFVYIAPGDFHLGLKAQNGKVFFFLDKSGWVSWGWTNNGVRPAVDFTLDKAAEIYKEKTIAVILTGGRYEGVLLGGDGTKGAFKVKFYGGTVIAEDKETSVVFGMPKSVIEEGYADYVLPAYKIPEKLIELV
notes: as for B1

T1 sequence (Q9NZQ7 19-238 limits assumed): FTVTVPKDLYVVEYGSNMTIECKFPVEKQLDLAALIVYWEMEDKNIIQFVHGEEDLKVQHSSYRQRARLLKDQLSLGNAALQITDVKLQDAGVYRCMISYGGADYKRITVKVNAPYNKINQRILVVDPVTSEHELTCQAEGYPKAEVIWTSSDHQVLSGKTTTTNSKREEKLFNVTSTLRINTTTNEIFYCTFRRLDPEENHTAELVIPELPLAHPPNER

One assay has as its target T1, Biotinylated human PD-L1 antigen comprising a human IgG1 Fc domain (Acro Biosystems) (human, UniProt Q9NZQ7 19-238, biotinylated (site not stated)).
T1 construct: The ELISA text says only 'antigens' were coated at 1 ug/mL; also called PD-L1 target; not shown: human IgG1 Fc domain
The assay is described as follows: ELISA, antigen coated at 1 ug/mL, purified scaffold titrated, anti-FLAG-HRP detection. The procedure: (§1) Affinity of binding of individual scaffolds of the invention was estimated by ELISA. Antigens were dissolved in PBS to 1 μg/mL and 100 μl coated onto the surface of each well of a 96 well MaxiSorp Plate (Nunc) at 4° C. overnight. The next day, the wells of the MaxiSorp plate were washed with PBST buffer (PBS containing 0.05% Tween-20) and the wells blocked with 400 μl per well of 5% (w/v) skim milk powder in PBST for 2 hours. This blocking buffer was then discarded and the wells of the plate washed with PBST. […] The diluted target binding scaffold proteins were then transferred to the antigen coated MaxiSorp plate and allowed to bind to the immobilized blocked antigens for 2 hours at room temperature with gentle shaking. Following this, the diluted target binding scaffold protein solution was discarded and the wells of the MaxiSorp plate were washed 4 times with PBST. Then, 100 μl of a 1/4000 diluted solution of anti-FLAG M2 HRP conjugated antibody (Sigma) in PBST containing 2.5% (w/v) skim milk was added to each well and allowed to bind for 1 hour. This was then discarded and the plate washed 4 times with PBST. Then 100 μl of ELISA POD Substrate TMB Kit (HYPER) detection reagent (Nacalai Tesque, Japan) was added per well and the color development reaction stopped by addition of 100 μl of 1M phosphoric acid. Absorbance of each well was read at 450 nm wavelength. The EC₅₀ of binding was calculated from four parameter logistic plots of the measured absorbance values (FIGS. 17A-17B).
In the case of B1, it took 165 nM to reach a half-maximal effect (EC50).
The molecule B2 gave an EC50 of 108 nM.
With B3, the concentration giving a half-maximal response (EC50) amounted to 91 nM.

Another assay has as its target T2, Biotinylated human HER2 antigen comprising a portion of the HER2 extracellular domain (Acro Biosystems) (human, UniProt P04626 23-652, biotinylated (site not stated)).
T2 construct: extracellular domain; The ELISA text says only 'antigens' were coated; also called HER2 target
The assay is described as above. The procedure:
as §1
Regarding B4, the EC50 came to 22 nM.
Regarding B5, the EC50 worked out at 4 nM.
B6 yielded an EC50 of 65 nM.

The values above are taken from patent US20230250557A1 (published 2023).
